Assay results: patent US20230242902A1, “A HIGHLY ERROR-PRONE […] R[…] FOR TARGETED CONTINUOUS EVOLUTION IN VIVO” (The Regents of the University of California, priority 2017, published 2023)
“And” between values parts separate entries of the source, which are not always exact repeats. Equal entries are not always repeated.

Experiments:
p1-encoded leu2* = assay: p1 leu2* fluctuation tests in AR-Y304 (p1 mutation rate reporter strain, mutual orthogonality); assay type: cell-based, S. cerevisiae
Source text: Strains for testing mutual orthogonality were generated by transforming a panel of CEN6/ARS4 vectors encoding TP-DNAP1 or TP-DNAP2 variants into two base strains, AR-Y304 and GA-Y021. AR-Y304 (Ravikumar et al., 2014, Nature Chemical Biology, 10:175-177) contains recombinant p1 encoding mKate2, URA3 and leu2* without disturbing the native TP-DNAP1 ORF. Similarly, GA-Y021 encodes recombinant p2 that replaces ORF1 with mKate2, URA3 and leu2* without disturbing the native TP-DNAP2 ORF.
To precisely measure p1 and p2 per-base substitution mutation rates, several modifications were made to the small-scale protocol. First, 36 replicates were performed for reconfirmation of candidate TP-DNAP2 mutators, and 48 replicates for genomic and mutual orthogonality experiments. Titers were also determined for each strain after spot plating by pooling the residual volume from 4 replicates and plating dilutions on YPD. The expected number of LEU2 functional mutants (m) was determined by the Ma-Sandri-Sarkar maximum likelihood estimator (as calculated by the FALCOR tool and corrected for partial plating (Foster, 2006, Methods Enzymol, 409:195-213; Sarkar et al., 1992, Genetica, 85:173-179; Hall et al., 2009, Bioinformatics, 25:1564-1565). The mean mKate2 fluorescence was determined from 50,000 event counts on Attune™ NxT Flow Cytometer and converted to p2 copy number by using a calibration curve. To determine per-base substitution rates, the corrected m was normalized to the average cell titer, the p2 copy number, and the target size for functional leu2* reversion (2.33 bp). 95% confidence intervals were similarly scaled.
To test whether the replication mechanisms of p1 and p2 are mutually orthogonal in vivo, p1 and p2 mutation rates were measured in the presence of a panel of TP-DNAP1 and TP-DNAP2 variants with varying mutation rates. Changes in p1 or p2 mutation rate induced by TP-DNAP variants would therefore signal a degree of cross-replication between TP-DNAP1/p1 and TP-DNAP2/p2, if any. A panel of six polymerases was introduced on CEN6/ARS4 vectors into two separate base strains, AR-Y304 (p1 mutation rate reporter strain) and GA-Y021 (p2 mutation rate reporter strain), encoding mKate2, URA3, and leu2* on either p1 or p2, respectively. Included in this panel were TP-DNAP1^WT and two error-prone TP-DNAP1 variants found in previous screens: TP-DNAP1^1777K, L900S and TP-DNAP1^L477V, L640Y, I777K, W814N. Also included were TP-DNAP2^WT and the error-prone TP-DNAP2^S370Q and TP-DNAP2^Y424Q variants found in this work. In AR-Y304 and GA-Y021, both p1 and p2 still encode their native wt TP-DNAP's. Any contribution to replication by a third TP-DNAP encoded in trans is monitored by detecting changes in linear plasmid mutation rate. Importantly, these experiments afford each DNAP an opportunity to replicate its native plasmid and lose its attached TP, becoming “spent” and perhaps more likely to replicate its noncognate linear plasmid through DNAP exchange (Klassen and Meinhardt, 2007, Linear Protein-Primed Replicating Plasmids in Eukaryotic Microbes, in Microbial Linear Plasmids, pp 1 87-226. Springer, Berlin, Heidelberg). The presence of TP-DNAP1^WT or TP-DNAP2^WT in trans had no effect on their noncognate linear plasmids' mutation rate. […] Likewise, p1 mutation rate was unaltered in the presence of mutagenic TP-DNAP2^S370Q and TP-DNAP2^Y424Q, which increased p2 mutation rate by 29- and 16-fold, respectively (FIG. 9). Thus, TP-DNAP1 replicates p1 with at least 870-fold specificity over p2, while TP-DNAP2 targets p2 with at least 29-fold specificity over p1. The level of mutual orthogonality measured here is limited by the error-rates of DNAPs used, especially that of TP-DNAP2 variants.

p1-encoded leu2 (Q180*) = assay: qPCR measurement of p1-encoded leu2 (Q180*) copy number; assay type: cell-based, S. cerevisiae; settings: qPCR-determined p1 copy number, OR-Y24 strains

B1: WT: wild-type Kluyveromyces lactis DNA polymerase TP-DNAP2, SEQ ID NO:13 (protein, listed as Kluyveromyces lactis)
chain: MNDELAFLNSQIDDYSDDIEFLRTEVFRINRYSKSIYSLMKNSSKEAIKETIEFNKYGQEIHSKIKEKEISLIEAIKLMEKKYKYLRSLNKTKDKSKKKKIHTKDIETLKTIYKTKADFDIRNFKNAETFTYENYSLLIPSEKELIDLIPEIEEDYSYYFYVSLTITGPTIFGGVTRKVPIIDTYGDINKDFYNKIKENITKVLDRVPFYEEKESEIICKKVLITLTVNKWESIDKWYKNVKSKSKKFKDFTLFLASDTSKNCVQQCVEYLGGKWNTNYSLEKMIPQQKIVTYIPLLMDIQYVQSMEDLISDFDEPNTDCKNIARLLKWNGHMGVITKIDKDVKINRIQRKRIIDVENKEVKEVFFDIESFSDETKHQIPYLICWSYLGELYYRTGKNCIKEFVEEILSYNVDIILYAWYGSGYDYQHVLPYMKSKCIKDKYIIKNNMITYGELYYENAIIYLKDPYLFILTSLDKASKAFNVINKGEFPHSIIHSWEDLNKILPNWVKIQKRMIEYKDDNKLNIYYKNIEIFENDRNYNTILENAIEYCKVDVLAMEKVWIKFKKLLEKNLNITVSVKTFTLSQLSMKIMESKLPKYVKLYVPTLEEYSKIRNAIYGGRVISKNGIYEENIVYADVVSLYPSAMKLLKHSYGKPKLVDYIDFEKHGIYRVTLLNKHDQEPKNYLNFVPRRINRKLTWEWFKIHEGWYHTYDLIIAKSEGFDIYCHEGFEYPEKDYIFNDFIDTLYSMKETHTACSCEEQPCPIRMVAKIALNGGGYGKFVQKPIDKEIYIVKRDVVAGECDKLQENENGEICIGKRLVKRPLFYNLDSENYDKMIIEKEDEPIYSTQCGISILSASRYRLYKLCKQFENIDIIYSDTDSIFVKQKSVDWELFKSKCGSELGQLDSTIDDTKNAIISKMYIGGAKMYAFEYLNNKNKLITKLHCKGVPNYMLSLNQFKYLMESPDNTIAYKFEIIRRKLVNVITKDLIKDIKQT
change in p1 mutation rate by TP-DNAP2 (p1-encoded leu2*; AR-Y304, noncognate polymerase in trans): no effect

B2: TP-DNAP1-4-2: TP-DNAP1 variant (L477V, L640Y, I777K, W814N), encoded by SEQ ID NO:11 (protein, listed as Kluyveromyces lactis)
chain: MDYKDKALNDLRNVYADFDSLPLDFRQILIKDRATLLQKEDVEKKILERQEDAKKYAEYLKQSEIPERISLPNIKRHKGVSISFEETSEDMVLEPRPFIFDGLNIRCFRRETIFSLKNKILNMVKESSSFKNVSRQSVSFMYFKIFNKGKVIASTKSVNIYEDKIDERLEDLCNNFDDVLKKIIDVTYGYESLFVSETYSYVIFYAKSIYFPQPRCVNNWGNNIPNILTFDSFKLFTANKNNVSCIKQCSRFLWQKDFNTLEEMIEYKNGNICIVTPQLHINDVRDIKSFNDIRLYSESPIKTFSVIDNTITYLFYFKEHLGVIFNITKSRHDRRVTKFSPLSKFSDVKNITVCFDIESYFDPEKESNQVNIPFICCASIIYNKVIGNIVDFEGRDCVAQMIEYVVDICGELNISSVELIAHNGGGYDFHYILSSMYNPAAIKNILIRNNSFISFNFAHDGVKFSVKDSYSFLLCSVANASKAFLNEETFKKTDFPHHDLKTADDLYKVYKEWSSVNTEINHVVEKEKLLITSEHIVNFTKNDKSKTLIEWSKDYCRNDVLVLSKVWLEFKNAVEDIFNCELVDQTMTLAGLSYKLFQANMPFDVELRHPNKEDYFNMREALIGGRCISVNGIYKDVLCYDVKSLYPASMAFYDQPYGSFKRVSSRPKDELGIYYVRVTPNRNNKSNFFPIRSHNKITYNNFEESTYIAWYTNVDIDIGLSEGHNIEYIPFDSYGNIGYSWSKKGKIFEKYIKDVLYKLKIKYEKQNNKVKRNVIKKIMNSLWGKFAQKWVNFEYFIKSEDDIDFESEEAYKINDTDFMLIKKIKESTYSSKPIQNGVFTLSWARYHMKSIWDAGAKEGAECIYSDTDSIFVHKEHFKKNAKFMLNGLKVPIIGSEVGQLELECEFDKLLCAGKKQYMGFYTYFQDGKPCIKEKKRFKGIPSNYIIPELYAHLLSGADKEAKIQFLKFRREWGSVKGYIENKTVKAT
Average leu2 (Q180*) copy number per cell (p1-encoded leu2 (Q180*); L640Y, I777K, W614N): 16.9 and 15.6 | fold increase of p1 mutation rate (p1-encoded leu2*; AR-Y304, polymerase in trans): 870 fold

B3: w.t.: wild-type Kluyveromyces lactis DNA polymerase TP-DNAP1, SEQ ID NO:1 (protein, listed as Kluyveromyces lactis)
chain: MDYKDKALNDLRNVYADFDSLPLDFRQILIKDRATLLQKEDVEKKILERQEDAKKYAEYLKQSEIPERISLPNIKRHKGVSISFEETSEDMVLEPRPFIFDGLNIRCFRRETIFSLKNKILNMVKESSSFKNVSRQSVSFMYFKIFNKGKVIASTKSVNIYEDKIDERLEDLCNNFDDVLKKIIDVTYGYESLFVSETYSYVIFYAKSIYFPQPRCVNNWGNNIPNILTFDSFKLFTANKNNVSCIKQCSRFLWQKDFNTLEEMIEYKNGNICIVTPQLHINDVRDIKSFNDIRLYSESPIKTFSVIDNTITYLFYFKEHLGVIFNITKSRHDRRVTKFSPLSKFSDVKNITVCFDIESYFDPEKESNQVNIPFICCASIIYNKVIGNIVDFEGRDCVAQMIEYVVDICGELNISSVELIAHNGGGYDFHYILSSMYNPAAIKNILIRNNSFISFNFAHDGVKFSVKDSYSFLLCSLANASKAFLNEETFKKTDFPHHDLKTADDLYKVYKEWSSVNTEINHVVEKEKLLITSEHIVNFTKNDKSKTLIEWSKDYCRNDVLVLSKVWLEFKNAVEDIFNCELVDQTMTLAGLSYKLFQANMPFDVELRHPNKEDYFNMREALIGGRCISVNGIYKDVLCLDVKSLYPASMAFYDQPYGSFKRVSSRPKDELGIYYVRVTPNRNNKSNFFPIRSHNKITYNNFEESTYIAWYTNVDIDIGLSEGHNIEYIPFDSYGNIGYSWSKKGKIFEKYIKDVLYKLKIKYEKQNNKVKRNVIKIIMNSLWGKFAQKWVNFEYFIKSEDDIDFESEEAYKIWDTDFMLIKKIKESTYSSKPIQNGVFTLSWARYHMKSIWDAGAKEGAECIYSDTDSIFVHKEHFKKNAKFMLNGLKVPIIGSEVGQLELECEFDKLLCAGKKQYMGFYTYFQDGKPCIKEKKRFKGIPSNYIIPELYAHLLSGADKEAKIQFLKFRREWGSVKGYIENKTVKAT
Average leu2 (Q180*) copy number per cell (p1-encoded leu2 (Q180*)): 68.9 and 88.1 | specificity for p1 over p2 (p1-encoded leu2*): at least 870 fold
